Laboratory results from the DeepSol protein solubility set.

Experiment: soluble on expression in E. coli; label from the status in PepcDB or PDB records

Sequence	soluble on expression in E. coli
MITDLILHNHPRMKTITLNDNHIAHLNAKNTTKLEYLNLSNNNLLPTNDIDQLISSKHLWHVLVNGINNDPLAQMQYWTAVRNIIDDTNEVTIDLSGLNLTTQPPGLQNFTSINLDNNQFTHFDATNYDRLVKLSLNSNALESINFPQGRNVSITHISMNNNALRNIDIDRLSSVTYFSAAHNQLEFVQLESCEWLQYLNLSHNQLTDIVAGNKNELLLLDLSHNKLTSLHNDLFPNLNTLLINNNLLSEIKIFYSNFCNVQTLNAANNQLKYINLDFLTYLPSIKSLRLDNNKITHIDTNNTSDIGTLFPIIKQSKTLEHHHHHH	not soluble
MGSDKIHHHHHHMASQRGDTKLQLLRDTSLSHDGLNHTILTLNQLLHQRAPFYGEHLSATTSPTGLSFDEWSCADTYQKLIARFAIAHPSAENQTETKTENETETDKTAATSRTPAFASKSALVSKNAVPSRKDTRKALHSLWGQWYFGLLVPPMMEWIFNAPKTDVETLHWQPQSVFMQVHPSGRVAKFEFKIAKYQPITALTFKKHHGIEPLSRTNTKPSIKIDTEVHSPLSPYKPSVDKELVLQGFILNLLQSSVDRLLTLSPVPAKLYWSHLGYLIHWYLGELGLSQQQNQQLKQALFRRTTFLDGSTNPLYNSINLLIEPEQDSATPYTVARIVTSTASRSKPSPKIHCIRRTCCLRYQLANTGQCHDCPLLSRAKVNVNATKQT	not soluble
MGSDKIHHHHHHMMFGKSCQVMVKPTGSVCNLDCKYCFYLEKEKLYPDRKNHYKMSEETLELFIRQQIAAQDIDEVIFAWQGGEPTLMGIPFYRKAVEFQQRYCGGKTIVNTFQTNGILINDDWATFFREHDFLVGVSIDGDAALHDEWRVTRSGKPTHEKVENAVRCLAQHDVEFNTLTVVNRTNMHHPVQVYRYLKSIGSRYMQFIPLVERCGENGLAQPQDKHIAMTPWSVDSLQFGQFLNAVFDIWIREDIGDIGIQLFEQTLAAWCGLPPQVCVFAPTCGSAFAMEMNGDVYNCDHFVYPQFKLGNIHQKTLRQMNQGEQNRQFGSDKQRSMAQECHRCQWKFACYGGCPKHRFLPSASGATNHNYLCAGYQAFFSHTATAMSAMRTLYEKGISPAEIKSIFV	not soluble
MKYPFYYCCDNLDIKSISVIGDFNNWDGGKNILKRHDDGTWMTEIELSPGKYRYKFLINDSILFNDPNALIYTYDDKGGTASFIIIDESNKRIINTKPASLNIESYSFLSVDKELSYCENGERKCYKDKHSSIMLKIGFSDITGLHTVNAIWYAPNNEIHEIQESVLNDGEKNENRKNEALFQININDDTIAGEWKLQIFINGSLALEDSFTVELKQPEVLDKTALDDAAMLSADLEVPDFLIEEDMQNEFEAPEFEVESNLQTNAEKEEISEEDLLGLFDDIKEIDMPEKDTSGNQKTPAPDETEMPADGNIMNLFDEIRISELKDEKAQDTENNTESTSKEAEESDSAIDELLELREFIDSSQNSEKDSIESSGGKSGEEANEEDISDIFIDIKNRTD	not soluble
MMEMITIKPGKITVQANPNMPKEVAELFRKQHYEIVGRHSGVKLCHWLKKSLTEGRFCYKQKFYGIHSHRCLQMTPVLAWCTHNCIFCWRPMENFLGTELPQPWDDPAFIVEESIKAQRKLLIGYKGNPKVDKKKFEEAWNPTHAAISLSGEPMLYPYMGDLVEEFHKRGFTTFIVTNGTIPERLEEMIKEDKLPTQLYVSITAPDIETYNSVNIPMIPDGWERILRFLELMRDLPTRTVVRLTLVKGENMHSPEKYAKLILKARPMFVEAKAYMFVGYSRNRLTINNMPSHQDIREFAEALVKHLPGYHIEDEYEPSRVVLIMRDDVDPQGTGVEGRFIKH	soluble
MSDASKRAAFDQYGHAGVDPSMGGGGAGFGGANFSDIFGDVFSDFFGGGGRGGGRGGAQRGSDLRYTLELNLEEAVRGTTVSIRVPTLVNCQPCDGSGAKKGSTPSTCPTCGGIGQVRMQQGFFSVQQTCPRCHGQGKIITDPCTSCHGEGRVEEYKTLSVKVPAGVDTGDRIRLSGEGEAGTHGGPTGDLYVVISVREHEIFQRDGKHLYCEVPISYTDAALGGELEVPTLDGRVKLKIPEGTQTGKQFRLRGKGVAPVRGGGAGDLLCRVAVETPVNLSRRQRELLEELRDSLEGDSSHSPKASGWFDGVKRFFGDLLEHHHHHH	not soluble
MNKHSGIDFKQLNFLTKLNENHSGELWKGRWQGNDIVVKVLKVRDWSTRKSRDFNEECPRLRIFSHPNVLPVLGACQSPPAPHPTLITHWMPYGSLYNVLHEGTNFVVDQSQAVKFALDMARGMAFLHTLEPLIPRHALNSRSVMIDEDMTARISMADVKFSFQSPGRMYAPAWVAPEALQKKPEDTNRRSADMWSFAVLLWELVTREVPFADLSNMEIGMKVALEGLRPTIPPGISPHVSKLMKICMNEDPAKRPKFDMIVPILEKMQDK	soluble
MEQPFDLAAELAKQPHLLEIAGNLLMKSGPEDYIGAVLCLRGTLYFKKAHTPLVRESLCQCFDEFERLAEPHLTWLWREEPAQGKPLTAYRDTQPLREMMGAMDEDDHLSFCYTSGKKSRDAGAWLFDIYGKRSWQAKMGHDLSVLEFSVPLLYQERQPLDFLQLFIDFARRLEPEQGYAGHAYNLSPTSWDNDEPSEAFMAARMPGLDVGTACLLANTPEFKPTRIKTVSWLTLLNNERLALAGGLDALRAQLPSSHFAFYRYGDGVVIQAGAYPYIAGDAEDSRPAPYVLLNHALKGIRYETIGSLHGGSHDGELRLVGWAADQWLKRLDVEDSEIPRWCDKLLSAEPYLDATNTLPERL	not soluble
MAHHHHHHMHPVPQAPYLSSPSPLFPNRGWCWQRPLRIFCPFFSAPLRAASSRRCHRPFLSIRFKKRCCNNPLLLGVVEAILPEPHSPAIPPVILRVFTPPS	not soluble
MGSDKIHHHHHHMRYLRADERCLICSLRQAENLLKKTITSPEKRWVIFREVFRIMSEMKWGMKPLEVNGEVHRFIMEYIKEEDPFKEEKRRSNDMAIKLVEMFRPEILNSPDPVYSAAKLAVSGNLIDLGIPGWSVDEIFEKLHEVYERPFDREDFEKFRNVLMNASTLFYVADNAGEIVFDKFFIEVLKMENPSLEVVVAVRGKPIINDATIEDAKYIGLEEIATVISSGVDEPGVMLDKASEEFRKAFFEFDVVISKGQGNFEGLYEEEKKNLFFLLTAKCDFVAEVLNVPLGGKVFISSSSL	not soluble
MSLDCSIKMLKDVPVKMRDGITIYTDIYLPITEEKVPTLIAWSPYGKSAGTAPRYKNLFNMLGMGNAWNSGLTKFEAPDPAYWCAHGYAVCNPDMRGIAHSEGNTTMIGSQEAEDGYDLIEWLAKQSWSNGKTALTGTSYLAFSQWYIAAEQPPHLTCINPTEGLADGYRDLAFIGGIPDPNFIERLQINHVSAKNSQREDLTKEMEAYPLADSAIWKDKVADPSKITIPAFVIASYSNTLHTMGTFRSWRSLGSKEKWLRIHDRQEWPYYYDENNVEELRRFFDYYLLGKENNWTDTPTVRYALIDFQGGNQTDLPSEVFPPTNSENKRYYMNGLLRTLQETPTSDDFKVSYTTENLPGRASFQMTFDKETHFVGYPKAKLFMEVDGYDDLDVFVWLQKLDKFGNVLSEFVVPNHGAALQDFTQEGASALRYKGAWGRLRASMRQLDSQVSTDEIPAYSFDKVEKLSSGEIVELDIILSPIGLTYKAGETLRVVVSSKDELGSVMPGTPGCTPNNKGMHILHTSKEHPSYIQLPIINKEGHHHHHH	soluble
MGSDKIHHHHHHMKEIINLDEMIMLLKTIAESSRLRLLALLYHEDLTVSDFTLVLGQSQSHVLQHLHLLYEAQLVERYQKGRSIYFKLYYGRLGKDIVMAVVSALLEHNRVIAHDLARLKDIKKQYRKQEKKYFLQNVVQWDTLRLFSIADLGVENALREIVGDKPFETMLDISRDTGSVLKLFSGLYTYAVEVVLDSDILHLSVENTTFDLVILHWVLYFLESPEVALHEIAGVLRPHGRLLIVDFVRHEVESSHSYLSHMPFGFSDLQIEQWLKNVGLILEKIICFPPLQNENNERLMVKIWLARDPRLLVDDIKDKKVEFA	not soluble
MSETLDQWRAGLTLGFAPGHAGRTVLRERAHYGPMLVQRALYPEGPQVCHVAILHPPSGIAGGDALEIRVDVAGGARAALTTPGATRWYKSNGRQASQDVHLRVAAGGRLDWLPLESIFFEEADALARNRIQLESGAAAIGWDLIQLGRVNQSGHWSQGRLHTATELYVDGRLLWVDQGLVGAQDDVRRQVSGLAGFPVHAALWSFGPRLDAEQNEELAGLMPWSDTLRGAATTMPYDATQSLCLVRCLGVHMEDVRAVMTDAWAYLRPRVLDTPAVVPRLWATKLAAALEHHHHHH	not soluble
MGSDKIHHHHHHMDTAGMISAVQEILANRSLDGWEITAASSHILSIEVKEQKVDTFKCSAPLGVSVRVLKNGGMGFSFSTSMAPEDLARMVDNALVGAESQTPDADHGFPDPPAVYPDVPGLFDDGLAAVAEEAKIAVALDLERLTLAADPRVRKVRKATYGDSMVETMVVNSRGVSCRYRGTSVSASVTAVAEENGQSQMGWDFDFSSRFDGISVERIVAGAVAKATGLLGAATVPTMRCPAVLDTYVATEILEVLAPAFLAESVQKGKSLLAGKRGEMIVAPLLTIRDDGTLPGGMGTAPFDAEGVPKRNTVLVQNGRLDSYLYDTLRARKEGVAPTGNAIRSGIKSPPHMGVSNLFIENGTEAPEALLAGITRGVLLTEVMGMHTANTISGDFSVGAAGFLVEDGRVTRPVKGIAIAGNILELFRGVEAVGNDLRFYGTVGSPSLRIAALDVSGE	not soluble
MSIIKKIVFKRFNSTLKKTALHDLHVSLGGTMVPYAGYSMPVLYKGQTHIESHNWTRTNAGLFDVSHMLQSKLSGPHSVKFLQRVTPTDFNALPVGSGTLSVLLNPQGGVVDDTIITKENDDNEFYIVTNAGCAERDTEFFHDELQNGSTLDCQWKIIEGRSLLALQGPKAKDVLEPLLSKTAPGKDLKELFFGQRHEFALKDGSLVQIARGGYTGEDGFEISIANEKAVEFAEQLLANPVMKPIGLAARDSLRLEAGMCLYGHELDESITPVEAALNWVISKSRRDLVDQKYWFNGYAKIMDQLNNKTYSKVRVGFKYLKKGPAARNGVKIFLPDAETEVGLVTSGSASPTLNNINIGQAYVQKGYHKKGTKLLVQVRNKFYPIELAKMPLVPTHYYKQ	not soluble
MGSDKIHHHHHHMTTPLLEINDLVVSYQTAKGLVHAVNNVSLEVHPGQITAIVGESGSGKSTTAQAVIGLLADNAEVDSGRISFNGRSLVGLNAREWKNVRGTKIGLIPQDPNNSLNPVKTIGASVGEGLAIHKRGTAAERKKKVIELLERVGIDNPEVRYDQYPHELSGGMKQRALIAAAIALEPELIIADEPTSALDVTVQKIILDLLEDMQRELGMGILFITHDLAVAGDRADRIVVMQKGEVRESGYAASVLTDPQHEYSKKLLADAPSLTIGEIPTRVPAVDPEVAQAKGPLLVVDKFRKEHQRGKEGAFVAANDISFEVLPGTTHAIVGESGSGKTTLGRAIAMFNTPTSGSISVSGKDITNLSKAQQRELRQQIQLVYQNPYSSLDPRQTIGSTIAEPLRNFTKVSKQEADEKVAHYLELVALDPALATRRPRELSGGQRQRVAIARAMILEPELVVFDEAVSALDVTVQAQILRLLDDLQRELGLTYVFISHDLAVVREISDTVSVMSRGNQVELGKTAEVFNNPQTDFTRRLIDAIPGSRYRGGELNLGL	not soluble
SAPAPPSGWSQVFLDDFDGAAGSSVNTANWQFDTGTSYPGGAGNWGTGEVESMTSSTSNVSLDGNGDLLITPRRDASGNWTSGRIETTRTDFQPPAGGKLRVEARLQMPNVTGDAAAGYWPAFWMLGAPFRGNYQNWPGVGELDIMENVQGLNKTWATMHCGTSPGGPCNETSGIGNSTACPNTTCQSGFHTYTMEWDRSVSPEAIRFSVDGVTYQTVTANQMDAATWTNATNHGFFVILNVAMGGGFPGAFGGGPTGATEPGHPMVVDYVQVTSLSPGL	soluble
